What was measured:
[1] = molecular target: T1, Human CXCR4 (human, UniProt P61073-2 2-356); test: membrane binding experiments, displacement of 125I-CXCL12
T1 construct: also called hCXCR4

[2] = molecular target: parathyroid hormone receptor (PTHR1); test: Biacore (SPR); PTHR + CaCl2; the table names no quantity; lower end of the range
[3] = molecular target: parathyroid hormone receptor (PTHR1); test: Biacore (SPR); PTHR + CaCl2; the table names no quantity; upper end of the range
[4] = molecular target: parathyroid hormone receptor (PTHR1); test: Biacore (SPR); PTHR - CaCl2; the table names no quantity; lower end of the range
[5] = molecular target: parathyroid hormone receptor (PTHR1); test: Biacore (SPR); PTHR - CaCl2; the table names no quantity; upper end of the range
[6] = molecular target: Cannabinoid Receptor 1 (CB1R); test: Biacore (SPR); the table names no quantity, heading 'Binding of clones against CB1R'
Cannabinoid Receptor 1 (CB1R), sequence (P47746 whole entry): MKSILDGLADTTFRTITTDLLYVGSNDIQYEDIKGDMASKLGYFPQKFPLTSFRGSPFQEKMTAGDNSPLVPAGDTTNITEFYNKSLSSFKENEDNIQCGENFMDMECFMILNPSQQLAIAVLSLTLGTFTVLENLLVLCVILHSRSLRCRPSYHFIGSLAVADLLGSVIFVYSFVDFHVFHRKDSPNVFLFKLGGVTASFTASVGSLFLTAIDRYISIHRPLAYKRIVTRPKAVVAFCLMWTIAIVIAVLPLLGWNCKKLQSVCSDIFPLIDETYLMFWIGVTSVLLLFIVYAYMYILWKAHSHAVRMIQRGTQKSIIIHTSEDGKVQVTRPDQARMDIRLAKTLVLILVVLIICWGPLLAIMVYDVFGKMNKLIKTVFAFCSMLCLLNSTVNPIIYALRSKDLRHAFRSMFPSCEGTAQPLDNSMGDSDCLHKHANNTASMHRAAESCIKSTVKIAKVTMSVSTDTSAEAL

[7] = molecular target: T2, Human CXCR7 (human, UniProt P25106 1-362); test: phage ELISA and FACS
T2 construct: also called hCXCR7
T2 sequence (P25106 whole entry): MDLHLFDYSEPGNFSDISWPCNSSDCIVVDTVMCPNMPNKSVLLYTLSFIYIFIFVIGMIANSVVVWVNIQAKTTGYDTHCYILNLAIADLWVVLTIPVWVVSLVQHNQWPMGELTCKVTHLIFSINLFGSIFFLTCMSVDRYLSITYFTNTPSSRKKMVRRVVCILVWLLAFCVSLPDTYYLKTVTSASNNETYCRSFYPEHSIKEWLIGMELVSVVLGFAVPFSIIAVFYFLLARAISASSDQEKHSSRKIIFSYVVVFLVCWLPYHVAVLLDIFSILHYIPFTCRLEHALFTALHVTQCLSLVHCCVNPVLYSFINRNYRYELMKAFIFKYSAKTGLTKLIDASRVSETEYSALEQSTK

[8] = molecular target: parathyroid hormone receptor (PTHR1); test: Biacore (SPR); PTHR - CaCl2; the table names no quantity
[9] = molecular target: parathyroid hormone receptor (PTHR1); test: Biacore (SPR); PTHR Fos12; the table names no quantity
[10] = molecular target: parathyroid hormone receptor (PTHR1); test: Biacore (SPR); PTHR + CaCl2; the table names no quantity
[11] = molecular target: T1, Human CXCR4; test: displacement of [125I]-CXCL12, membranes from HEK293T cells transiently expressing CXCR4; n=4

parathyroid hormone receptor (PTHR1), sequence (Q03431 27-593): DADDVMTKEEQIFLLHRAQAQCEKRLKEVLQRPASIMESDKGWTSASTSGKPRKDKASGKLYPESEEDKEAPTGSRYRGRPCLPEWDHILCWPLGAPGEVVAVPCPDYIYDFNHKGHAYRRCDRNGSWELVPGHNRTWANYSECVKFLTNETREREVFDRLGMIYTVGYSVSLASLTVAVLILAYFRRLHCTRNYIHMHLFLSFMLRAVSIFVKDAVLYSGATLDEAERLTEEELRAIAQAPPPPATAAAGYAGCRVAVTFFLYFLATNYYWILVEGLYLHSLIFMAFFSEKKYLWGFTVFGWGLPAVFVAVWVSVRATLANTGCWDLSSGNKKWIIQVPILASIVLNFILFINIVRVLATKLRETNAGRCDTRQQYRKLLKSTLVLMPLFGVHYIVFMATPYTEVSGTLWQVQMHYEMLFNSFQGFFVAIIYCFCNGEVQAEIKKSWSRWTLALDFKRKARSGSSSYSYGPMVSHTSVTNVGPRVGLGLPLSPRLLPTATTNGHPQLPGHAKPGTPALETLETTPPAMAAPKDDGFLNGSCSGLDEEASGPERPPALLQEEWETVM
T1 sequence (P61073 other isoform, or with tags, fused parts or gaps): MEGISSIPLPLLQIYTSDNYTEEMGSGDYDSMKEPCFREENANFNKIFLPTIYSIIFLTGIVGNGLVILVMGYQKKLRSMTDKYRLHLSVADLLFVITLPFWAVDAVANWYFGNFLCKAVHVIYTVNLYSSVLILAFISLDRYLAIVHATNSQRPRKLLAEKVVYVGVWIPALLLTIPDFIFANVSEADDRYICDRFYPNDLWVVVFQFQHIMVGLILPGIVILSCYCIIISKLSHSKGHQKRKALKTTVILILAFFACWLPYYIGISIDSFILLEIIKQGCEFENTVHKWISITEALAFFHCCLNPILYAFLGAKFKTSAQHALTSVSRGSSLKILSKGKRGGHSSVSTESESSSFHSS

How did the displacement of radiolabeled 125I-CXCL12 [1] turn out when mAb 12G5 (antibody) was run?
The displacement of radiolabeled 125I-CXCL12 was 50%.

Which Kd [2] does the source give for “PTH (1-34) (ligand) (from UniProt P01270 32-65) (peptide)” here?
The Kd was 0.2 to 16 nM.

What about the Kd [3] of the same molecule?
The Kd was 0.2 to 16 nM.

What about the Kd [4] of the same molecule?
Its Kd is 4 to 23 nM.

What about the Kd [5] of the same molecule?
Its Kd is 4 to 23 nM.

B1: LGPMP6_H4 (VHH)
VHH: EVQLVESGGGLVQAGGSLRLACAASGSIFSFNAMGWYRQAPGKQRELLAVITRDGITKYADSVKGRFTISRDNAKNTMYLQMNSLKPEDTAVYYCHTGLPTGRGSHSDYWGQGTQVTVSS
Which Kd [6] does the source give for B1 here?
The Kd was 36 nM.

B2: 08A10 (VHH)
VHH: EVQLVESGGGLVQAGGSLRLSCAASGSIFSIAAMGWYRQATGKQRELVATITDGGTTTYADSVKGRVTISRDRSANTVYLAMNNLKPDDTAVYYCYAYLRYTSRVPGDNYWGQGTQVTVSS
notes: Group 2 anti-CXCR7 Nanobody; also called Nanobody 08A10
Does B2 bind [7]?
Result: binds

B3: PMPLG26-A6 (VHH)
VHH: EVQLVESGGGLVQAGGSLRLSCAASRSRSSFDDMGWYRQAPGKQREFVGGITLGGSTIYADSVKGRFTISMDSARNTGYLQMNSLKPEDTAVYYCNAALDGYSGSSWGQGTQVTVSS
With B3 as the molecule, how does the Kd [8] read?
The Kd was 17 nM.

B4: PMPLG26-F2 (VHH)
VHH: EVQLVESGGGLVQAGGSLRLSCVASGFSFDDYAIGWFRQAPGQDREPLACITSGGTRNYNPSVMARFRIDRDNSVKTVYLQINTLKPEDTAVYYCSTELDRQGGSAHECREYDTWGQGTQVTVSS
With B4 as the molecule, how does the Kd [9] read?
Its Kd is 360 nM.

What about the Kd [10] of the same molecule?
The Kd was 70 nM.

B5: 01C10 (VHH)
VHH: EVQLVESGGGLVQTGASLRLSCAASGRTFSNYAMGWFRQAPGKERERVAAITPRAFTTYYADSVKGRFTISRDNAKNTAYLQMVSLKPEDTAVYYCAAQLVGSGSNLGRQESYAYWGQGTQVTVSS
notes: Group 1 anti-CXCR7 Nanobody; also called Nanobody 01C10
Does B5 bind [7]?
Result: binds

B6: 238D4-20GS-238D4 (VHH)
chain: EVQLMESGGGLVQAGGSLRLSCAASGRTFNNYAMGWFRRAPGKEREFVAAITRSGVRSGVSAIYGDSVKDRFTISRDNAKNTLYLQMNSLKPEDTAVYTCAASAIGSGALRRFEYDYSGQGTQVTVSSGGGGSGGGGSGGGGSGGGGSEVQLMESGGGLVQAGGSLRLSCAASGRTFNNYAMGWFRRAPGKEREFVAAITRSGVRSGVSAIYGDSVKDRFTISRDNAKNTLYLQMNSLKPEDTAVYTCAASAIGSGALRRFEYDYSGQGTQVTVSS
notes: also called L13
For B6, which Ki [11] is on record?
Its Ki is 1 nM.

B7: PMPLG23-A3 (VHH)
VHH: EVQLVESGGGLVQAGGSLRLSCAASGLTFSNYAMGWFRQAPGKEREWVASINWSGGSTYYEDSVEGRFTISRDNAKNTVNLQMNSLKPEDTAVYYCAAKRGHYSREYDYWGQGTQVTVSS
For B7, which Kd [8] is on record?
The Kd was 22 nM.

B8: LGPMP6_B7 (VHH)
VHH: EVQLVESGGGLVQAGGSLRLSCAASGRTLRNYDMGWFRQAPGKEREFVATIRWSTSETYYADSVKGRFTISSDNAKNTVDLQMNSLTPGDTGVYYCAARSVYSYDYNYWGQGTQVTVSS
B8 was tested. Which Kd [6] did it give?
Its Kd is 12 nM.

B9: LGPMP5_G11 (VHH)
VHH: EVQLVKSGGGLVQAGGSLRLSCAASGRTLSNYDMGWFRQAPGKEREFVATIRWSTGETYYTDSVKGRFTISKDNTKNTVDLQMNSLTPEDTAVYYCASRSVYSYEYNYWGQGTQVTVSS
B9 was tested. Which Kd [6] did it give?
Its Kd is 12 nM.

B10: PMPLG22-A3 (VHH)
VHH: EVQLVESGGGLVQAGGSLRLSCAASGNIFANNIMGWYRQPPGKEREFVAHVSHDGDSMYAVSVKGRFAISRKDATNLYLQMNSLKPEDTAIYFCRLLNIPTQGRMEGFWGQGTQVTVSS
With B10 as the molecule, how does the Kd [10] read?
The Kd was 9 nM.

What about the Kd [8] of the same molecule?
The Kd was 17 nM.

B11: 08A05 (VHH)
VHH: EVQLVESGGGLVQAGDSLRLSCAASGLTFSNYDMGWFRQAPGKEREFVGASWWSGGAPYYSDSVKGRFTISRDNAKNTVYLQANSLRPEDTAVYYCAAKRLRSFASGGSYDYWGQGTQVTVSS
notes: Group 2 anti-CXCR7 Nanobody; also called Nanobody 08A05
Does B11 bind [7]?
Result: binds

Reference: patent US20130130379A1 (published 2013)
